Biological target: oxidized LDL (oxLDL) (UniProt P04114 28-4563, limits assumed, oxidized LDL; kind of oxidation of the preparation used in the assay not stated)
Assay: cell-based or functional assay

Sequence of oxidized LDL (oxLDL) (P04114 28-4563 limits assumed): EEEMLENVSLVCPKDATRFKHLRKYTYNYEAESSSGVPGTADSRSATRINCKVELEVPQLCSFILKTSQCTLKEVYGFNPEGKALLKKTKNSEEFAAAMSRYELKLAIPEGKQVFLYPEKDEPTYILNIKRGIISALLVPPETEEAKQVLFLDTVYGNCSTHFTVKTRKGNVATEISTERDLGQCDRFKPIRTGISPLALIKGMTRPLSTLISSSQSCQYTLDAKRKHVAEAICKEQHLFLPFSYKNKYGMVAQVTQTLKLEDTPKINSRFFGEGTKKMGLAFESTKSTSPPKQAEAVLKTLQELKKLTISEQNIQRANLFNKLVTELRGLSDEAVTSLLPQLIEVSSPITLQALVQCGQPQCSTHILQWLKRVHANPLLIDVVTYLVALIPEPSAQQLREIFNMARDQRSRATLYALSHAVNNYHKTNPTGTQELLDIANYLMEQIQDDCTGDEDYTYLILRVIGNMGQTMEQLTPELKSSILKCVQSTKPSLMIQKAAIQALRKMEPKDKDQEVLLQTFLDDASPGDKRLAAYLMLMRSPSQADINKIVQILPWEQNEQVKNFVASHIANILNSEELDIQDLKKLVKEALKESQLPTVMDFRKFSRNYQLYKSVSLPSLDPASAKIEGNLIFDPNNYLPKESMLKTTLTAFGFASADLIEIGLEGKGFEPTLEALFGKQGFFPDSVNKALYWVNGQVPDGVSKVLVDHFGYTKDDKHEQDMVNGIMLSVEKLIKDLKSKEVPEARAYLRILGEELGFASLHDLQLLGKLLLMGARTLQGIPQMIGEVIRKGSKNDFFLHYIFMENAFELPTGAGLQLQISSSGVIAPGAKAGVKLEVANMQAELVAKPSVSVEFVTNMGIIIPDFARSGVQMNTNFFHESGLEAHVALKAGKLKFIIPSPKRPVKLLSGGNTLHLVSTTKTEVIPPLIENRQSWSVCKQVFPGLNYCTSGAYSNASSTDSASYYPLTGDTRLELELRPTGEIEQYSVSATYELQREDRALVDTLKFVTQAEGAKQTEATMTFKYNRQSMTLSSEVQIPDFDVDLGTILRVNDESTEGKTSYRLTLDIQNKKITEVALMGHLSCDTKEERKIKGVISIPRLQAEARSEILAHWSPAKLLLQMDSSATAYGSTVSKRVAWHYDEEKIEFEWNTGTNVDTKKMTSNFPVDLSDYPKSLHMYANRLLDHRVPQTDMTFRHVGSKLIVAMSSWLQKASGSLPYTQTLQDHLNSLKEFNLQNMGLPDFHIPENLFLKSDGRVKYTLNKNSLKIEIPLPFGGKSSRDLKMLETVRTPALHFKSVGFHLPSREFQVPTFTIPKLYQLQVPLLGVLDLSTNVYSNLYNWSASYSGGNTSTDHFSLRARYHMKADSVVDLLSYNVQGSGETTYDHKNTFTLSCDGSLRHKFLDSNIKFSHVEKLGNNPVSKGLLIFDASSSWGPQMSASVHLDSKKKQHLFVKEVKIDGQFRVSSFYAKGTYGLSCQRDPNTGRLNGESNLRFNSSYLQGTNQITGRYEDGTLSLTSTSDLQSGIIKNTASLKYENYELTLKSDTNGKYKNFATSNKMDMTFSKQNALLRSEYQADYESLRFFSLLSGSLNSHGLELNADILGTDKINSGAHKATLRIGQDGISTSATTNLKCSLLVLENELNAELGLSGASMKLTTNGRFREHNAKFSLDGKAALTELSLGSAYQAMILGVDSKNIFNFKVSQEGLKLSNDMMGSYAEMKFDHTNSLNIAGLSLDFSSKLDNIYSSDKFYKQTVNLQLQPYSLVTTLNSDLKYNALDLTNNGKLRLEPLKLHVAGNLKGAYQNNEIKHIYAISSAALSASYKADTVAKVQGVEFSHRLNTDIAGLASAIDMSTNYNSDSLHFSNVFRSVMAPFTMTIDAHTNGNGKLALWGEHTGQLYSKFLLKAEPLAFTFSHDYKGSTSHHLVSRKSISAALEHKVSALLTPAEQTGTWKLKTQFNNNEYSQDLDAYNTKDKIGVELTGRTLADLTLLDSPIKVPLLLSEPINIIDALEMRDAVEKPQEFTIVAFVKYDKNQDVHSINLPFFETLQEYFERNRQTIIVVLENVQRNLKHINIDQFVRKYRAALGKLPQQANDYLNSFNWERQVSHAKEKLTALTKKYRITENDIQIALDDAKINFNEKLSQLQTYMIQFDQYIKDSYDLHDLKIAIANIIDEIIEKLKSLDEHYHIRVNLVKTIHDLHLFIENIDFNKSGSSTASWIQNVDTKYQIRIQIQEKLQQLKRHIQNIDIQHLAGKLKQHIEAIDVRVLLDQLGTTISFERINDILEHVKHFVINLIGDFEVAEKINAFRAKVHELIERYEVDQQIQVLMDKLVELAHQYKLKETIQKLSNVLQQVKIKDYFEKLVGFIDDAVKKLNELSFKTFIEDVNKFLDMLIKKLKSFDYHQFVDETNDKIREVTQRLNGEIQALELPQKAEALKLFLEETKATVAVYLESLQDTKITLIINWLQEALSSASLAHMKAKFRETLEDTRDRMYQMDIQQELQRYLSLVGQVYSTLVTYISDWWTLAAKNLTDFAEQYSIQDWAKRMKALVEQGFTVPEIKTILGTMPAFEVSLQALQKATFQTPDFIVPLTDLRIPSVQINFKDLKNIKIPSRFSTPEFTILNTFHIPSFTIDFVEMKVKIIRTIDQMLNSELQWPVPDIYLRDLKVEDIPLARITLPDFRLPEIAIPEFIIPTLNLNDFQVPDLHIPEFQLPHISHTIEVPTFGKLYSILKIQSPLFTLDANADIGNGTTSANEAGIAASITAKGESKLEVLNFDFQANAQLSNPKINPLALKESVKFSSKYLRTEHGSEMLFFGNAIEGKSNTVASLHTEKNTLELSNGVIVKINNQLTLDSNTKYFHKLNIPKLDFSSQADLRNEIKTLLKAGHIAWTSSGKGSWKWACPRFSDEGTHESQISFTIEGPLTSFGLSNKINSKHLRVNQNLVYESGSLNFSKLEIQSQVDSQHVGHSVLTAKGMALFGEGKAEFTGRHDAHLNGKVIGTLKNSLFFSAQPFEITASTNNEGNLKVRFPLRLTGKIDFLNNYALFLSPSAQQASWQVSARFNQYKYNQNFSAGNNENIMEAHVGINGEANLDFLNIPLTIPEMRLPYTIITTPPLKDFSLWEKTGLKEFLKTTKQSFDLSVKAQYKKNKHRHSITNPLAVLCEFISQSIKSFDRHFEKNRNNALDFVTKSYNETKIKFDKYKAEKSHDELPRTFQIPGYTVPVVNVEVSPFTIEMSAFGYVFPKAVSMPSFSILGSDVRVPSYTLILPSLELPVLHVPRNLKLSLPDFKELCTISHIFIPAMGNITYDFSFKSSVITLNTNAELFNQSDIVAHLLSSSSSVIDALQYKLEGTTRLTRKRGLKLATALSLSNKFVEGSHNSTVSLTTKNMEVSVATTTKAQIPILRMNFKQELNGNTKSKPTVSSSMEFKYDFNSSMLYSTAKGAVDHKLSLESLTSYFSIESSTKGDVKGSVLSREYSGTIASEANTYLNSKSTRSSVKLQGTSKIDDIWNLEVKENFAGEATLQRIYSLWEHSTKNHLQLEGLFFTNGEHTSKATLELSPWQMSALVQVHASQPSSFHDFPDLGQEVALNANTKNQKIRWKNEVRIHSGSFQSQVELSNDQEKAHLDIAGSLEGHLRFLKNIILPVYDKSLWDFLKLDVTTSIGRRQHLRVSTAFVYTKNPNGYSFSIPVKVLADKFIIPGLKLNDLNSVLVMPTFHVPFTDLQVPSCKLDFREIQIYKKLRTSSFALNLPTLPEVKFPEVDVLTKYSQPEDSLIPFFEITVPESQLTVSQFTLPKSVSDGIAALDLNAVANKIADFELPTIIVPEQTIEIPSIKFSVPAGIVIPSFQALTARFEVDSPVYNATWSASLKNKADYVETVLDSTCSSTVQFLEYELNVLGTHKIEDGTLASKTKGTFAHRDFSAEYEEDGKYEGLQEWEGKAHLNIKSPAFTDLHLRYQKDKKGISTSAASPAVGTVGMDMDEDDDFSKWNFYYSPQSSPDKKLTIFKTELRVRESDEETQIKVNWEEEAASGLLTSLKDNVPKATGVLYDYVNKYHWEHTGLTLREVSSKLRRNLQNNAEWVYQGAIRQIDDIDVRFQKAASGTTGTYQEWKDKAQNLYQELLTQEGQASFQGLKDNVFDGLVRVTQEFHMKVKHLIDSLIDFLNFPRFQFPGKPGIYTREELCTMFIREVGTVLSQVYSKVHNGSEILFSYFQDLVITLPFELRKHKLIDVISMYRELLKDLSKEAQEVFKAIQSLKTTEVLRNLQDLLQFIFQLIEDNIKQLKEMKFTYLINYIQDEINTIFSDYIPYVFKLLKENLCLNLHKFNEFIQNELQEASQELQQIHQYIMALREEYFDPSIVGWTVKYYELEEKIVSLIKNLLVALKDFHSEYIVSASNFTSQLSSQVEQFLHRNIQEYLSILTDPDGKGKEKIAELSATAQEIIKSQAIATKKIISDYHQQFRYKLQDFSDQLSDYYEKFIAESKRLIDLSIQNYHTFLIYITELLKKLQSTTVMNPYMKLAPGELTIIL

IC50 for MCP-1 inhibition: ~10 nM
B1: orticumab (antibody, human IgG1, lambda, V domains shown)
VH: EVQLLESGGGLVQPGGSLRLSCAASGFTFSNAWMSWVRQAPGKGLEWVSSISVGGHRTYYADSVKGRSTISRDNSKNTLYLQMNSLRAEDTAVYYCARIRVGPSGGAFDYWGQGTLVTVSS
VL: QSVLTQPPSASGTPGQRVTISCSGSNTNIGKNYVSWYQQLPGTAPKLLIYANSNRPSGVPDRFSGSKSGTSASLAISGLRSEDEADYYCASWDASLNGWVFGGGTKLTVLG
